Laboratory results: the nanobody polyreactivity screen of Harvey et al. (2022)

Assay: yeast display, Sf9 membrane polyspecificity reagent, FACS + sequencing; frameworks hold sequencing errors
Procedure, shortened: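 Nanobodies came from a synthetic yeast display library in Saccharomyces cerevisiae BJ5465, induced with galactose for 36–48 hours and stained for 1 hour at 4 °C with 10% biotinylated, detergent-solubilized Sf9 membrane reagent. Cells were enriched on streptavidin microbeads and then FACS-sorted, with low and high (top ~1%) gates set on anti-HA fluorescence for expression and streptavidin fluorescence for reagent binding. Each polyreactivity label reflects the gate a clone came from. Genes were amplified by colony PCR, sequenced by MiSeq 2 × 250 and filtered by CDR length.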

Sequence	polyreactivity (PSR sort gate)
QVQLVESGGGLVKAGGSLRLSCAASGRIFNYYAMGWYRQAPGKERELVAAISSVGSTNYADSVTGRFTISRDNAKNTVYLQMISLKPEDTAVYYCAAPYQHYDVNYDSWGQGTQVTVSS	low polyreactivity
QVHLVESGGGLVQAGGSLRLSCAASGRIFYYYAMGWYRQAPGKEREFVAAIRISGGSTNYADSVKGRFTISRDNAKNTVYLQMNSLKPEDTAVYYCAARSKYSGIRRAYDYWGQGTQVTVSS	high polyreactivity
QVQLVESAGGLVQAGGSLRLSCAASGNTFPPYPMGWYRQAPGKERELVAAISCGGRTYYADSVKGRFTISRDNAKNTVYLQMNSLKPEDTAVYYCAVYVPNYYSYHYDYWGQGTQVTVSS	high polyreactivity
QVQLVESGGGLVQAGGSLRLSCAASGLTFYAYAMGWYRQAPGKERELVAAIRWSGGRTYYADSVKGRFTISRDTEKNTVYLQMNSLKPEDTAVYYCAAELSWRLYDYEYWGQGTQVTVSS	low polyreactivity
QVQLVESGGGLVQAGGSLRLSCAASGSTFYRYAMGGYRQAPGKERELVASITRGGGRTHYADSVKGRFTISRDNAKNTVYLQMNSLKPEDTAVYYCAAVTPVSYRLYGYWGQGTQVTVSS	high polyreactivity
QVQLVESGGGLVQAGGSLRLSCAASGRTFSPYAMGWYRQAPGKERELVAAITSRGASTYYADSVKGRFTISRDNAKNTVYLQMNSLKPEDTAVYDCNSGRTYRRLGDYWGQGTQVTVSS	high polyreactivity
QVQLVETGGGLVQAGGSLRISCAASGRIFGVYAMGWYRQAPGKERELVAAITRGASTYYADSVKGRFTISRDNAKNTVYLQMNILKPEDTAVYYCAVSQYRGIYRKYDYWGQGTQVTVSS	high polyreactivity
QVQLVESGGGLVQAGGSLRLICAASGSIFTSNAMGWYRQAPGKERELVAAITSDGAITYADSVKGRFTISRDNAKNTVYLQMNSLKPEDTAVYYCATEIEYYVGSVADMGYWGQGTQVTVSS	low polyreactivity
QVQLVESGGGLDQAGGSLRLSCAASGSIFETYVMGWYRQAPGKERELVAAINSGGSTYYADSVKGRFTISRDNAKNTVYLQMNSLKPEDTAVYYFAADSPYGYYEGDYWGQGTQVTVSS	low polyreactivity
QVQLVESGGGLVQAGGSLRLSCAASGSTLRRYAMGWYRQAPGKERELVAAISGTGSRTYYADSVKGRFTISRDNAKNTVYLQMNSLKPEDTAVYYCNASPYRLTENDYWGQGTQVTVSS	high polyreactivity
QVQLVESGGGLVQAGGSLRLSCAASGRTFTYYAMGWSRQAPGKERELVASITSGGSTYADSVKGRFTISRDNAKNTVYLQMNSLKPEDTAVYYCAARAWGYRYKYYWGQGTQVTVSS	high polyreactivity
QVQLVESGGGLVQAGGSLRLSCAASGSIFGRNAMAWYRQAPGKERELVADIWNGGSTYYADSVNGRFTNSRDNAKNTVYFLMNSLKPEDTAVSYCNADADDDGRFGGYMKYDYWGQGTQVTVSS	low polyreactivity
QVQLVESGGGLVQAGGSLRLSCAASGRIFVAYTRGWYRQAPGKERELVAAITWNSGSSTYYADSVKGRFTISGDNAKNTVYLQMNSLKPEDTAVYYCAARSAGRYWNYYWGQGTQVTVSS	high polyreactivity
QVQLVESCGGLVQAGCSLRLSCAASGSIRYYPMGWYRQAPGKERELVAGITRNGGSTYYADSVKGRFTISRDNAKITVYLQMNSLKPEDTAVYYFAAGFTTRRGEYNYWGQGTQVTVSS	high polyreactivity
QVQLVESGGGLVQAGGSLRLSCAASGSTFRFYAMGWYRQAPGKERELVAAISSRAGSTYYADSVKGRFTISRDNAKNTVYLQMNSLKPEDTAVYYCNARTYSYRGYNYWGQGTQVTVSS	high polyreactivity
QVQLVESGGGLVQAGGSLRLSCAASGSTFLSNAMGWYRPAPGKERELVAAITTSGTSTFDADSVKGRFTISRDNAKTTVYLQMNSLKPEDTAVYCAKDYLPYLHFVAPSTGDYDYWGQGTQVTVSS	low polyreactivity
QVQLVESGGGLVQAGGSLRLSCAASGRTYFTNAMGWYRQAPGKERELVAAITGSGGSTSYADSVKVRFTISRDNAKNTVYLQMNSLKPEDTAVYYCAAEWQELEYVYWGQGTQVTVSS	low polyreactivity
QVQLVESGGGLVQAGGSLRLSCAASGRTFRINAMGWYRQAPGKERELVAAITYRGANTYYADSVKGRFTISRDNAKNTVYLQMNSLKPEDTAVYYCAAEYAYHHVGFGYWGQGTQVTVSS	low polyreactivity
QVQLVDSWGGLVQAGGSLRLSCAASGRTSRYAMGWYRQAPGKERELVAAITSSGGRTYYADSVKGRFTISRDNAKNTVYLQMNSLKPEDTAVYYCAAGYLLWRTWDYAAGHNYWGQGTQVTVSS	high polyreactivity
QVQLVESGGGLVQAGGSLRLSCAASGSIFLVNAMGWYRQAPGKERELVAAITYGGDSTYYADSVKGRFTISRDNAKNTVYLQMNSLKPEDTAVYYCAADAWVGWHDEYDYWGQGTQVTVSS	low polyreactivity
QVQLVESGGGLVQAGGSLRLSCAASGFTLFWNDMGWYRQAPGKERELVAAITSGDDTYADSVKGRFTISRDNAKNTVYLQMNSLKPEDTAVYYCNKDDPLRNVAQVILYEFYYWGQGTQVTVSS	low polyreactivity
QVQLVESGGGLVQAGGSLRLSCAASGIIFQKYAMGWYRQEPGKERELVDAITRRGGSTYYADSVKGRFTISRDNAKNTVYLQMNSLKPEDTAVYYCAVQLRRHVDMDYWGQGTQVTVSS	high polyreactivity

Sequence	polyreactivity (PSR sort gate)
QVQLVESVGGLVQAGGSHRLSCAASGSIFGYYTMGWYRQAPGKERELVAAITYSGGSTYYADSVKGRFTISRDNAKNTVYLQMNSLKPEDTAVYYCNAKSAAHRYVRRHDYWGLGTQVTVSS	low polyreactivity
QVQLQESGGVQAGGSLRLSSAASSYISRSDVMGWYRQAPGKERELVATINNGTITYYADSVKGRFTISRDNAKNTVYLQMNSLKPEDTAVHYFAVVQSDTDSLYYWGHGTQVTVSS	low polyreactivity
QDQLVETGGGLVQAGGCLRLSCAASGRNFFGYAMGWYRQAPGTERELLAAITQSGGRTYYADSVKGRFTISRDNAKNTVYLLMNSQKPEDTAVYYCAATWLGTRNLVHITLYYWGQGTQVTVSS	low polyreactivity
QVQLVESGGGLVQAGGSLRLSCAASGIIFRKYAMGWYRQAPGKERELVAAISWRGGSTYYADSVKGRFTISRDNAKNTVYLQMNSLKPEDTAVYYCAAVAQITGYDYWGQGTQVTVSS	high polyreactivity
QVQLVETWGGLVQAGGTLRLSCAASGSIFSPYAMGWYRQAPGKERELVAAISRNGGTTYYADSVKGRFTISRDNAKNTVYLQMNSLKPEDTAVYYCARLYYTQKDSKTGYGYWGQGTQVTVSS	high polyreactivity
QVQLVESGGGLVQAGGSLRLSCAASGIFRQNAMGWYRQAPGKERELVAGISQSGGSTYYADSVKGRFTISRDNAKNTVYLQMNSLKPEDTSVYYCALVSIWGYDYWGQGTQVTVSS	low polyreactivity
QVQLVESGGGLVQAGGSLRLSSAATGRTFASYAMGWYRPAPGKERELVAVITRGVRTYYADSVKGRFTISRDNAKNTVYLEMNSLKPEDTAVYYCAKERYNANYDTSLYDYWGQGTQVTVSS	low polyreactivity
QVQLVESIGGLVQAGGSLRLSCAASGSIFQPYAMRWYRQAPGKERELVAAITTSGGRTYYADSVKGRFTMSRDNAKNTVYLQMNSLKPEDTAVYYCAADWGIGDYDYWGQGTQVTVSS	high polyreactivity
QVQLVESGGGLVQAGGSLRLSCAASGRIFPYYAMGWYRQAPGKEREFVAAITRRGTSTYYADSVKGRFTISRDNAKNTVYLQMNSLKPEDTAVYYCNKDIISLSRSYGYWGQGTQVTVSS	high polyreactivity
QVQLVESGGGLVQAGGILRLSCAARTFVNYDMGWTRQAHGKERELVAAISSSGGSTNYADSVKGRFTISRDNAKNTVYLQMKSLKPEDTAVYYCAAASRRQVIPAMYYWGQGTQVTVSS	high polyreactivity
QVQLVESVGGLVQAGGSLRLSCAASGFTLFFYAMGWYRQAPGKERELVARITSRAGRTYYADSVKGRFTISRDNAKNTVYLQMNSLKPEDNAVFYCNTRDFSGYVHALSLYDYWGQGTQVTVSS	high polyreactivity
QVQLVESGGGLVQAGGSLRLSCADSGSISDYYAMGWYRQAPGKERELVAAISWDGGSTYYADSVKGRFTISRDNAKNTVYLQMNSLKPEDTAVYYCAAVAWEGSGSEMYSWGQGTQVTVSS	low polyreactivity
QVQLVESGGGLVQAGGSLRLSCAASGNTIKDYTMGWYRQAPGKERELVASINSGGSTNYADSVKGRFTISRDNPKNTVYLQMNSLKPEDTAVYYSAKRAWSDYNPIDYWGQGTQVTVSS	low polyreactivity
QVQLVESGGGLVQAGGSLRLSCAASGSIFTPYAMGWYRQAPGKERELVAGIRSSGGRTYYADSVKGRFTISRDNAKNTVYLQMNSLKPEDTAVYYCAARVGGIYRNDYWGQGTQVTVSS	low polyreactivity
QVQLEESGGGLRQAGGRLRLSCAASGRTFYVNAKGWYRQAPGKERELVAAISWSGGSTYYADSVKGRFTITRDNAKNTVYLQMNSLKPEDTAVYYCAAEDIEVYEYWGQGTQVTVSS	low polyreactivity
QVQLVESGGGLVQAGGSLRLSCAASGSIFEYYAMGWYREAPGKERELVAAITSSGASTYYADSVKGHFTISRDNAKNSVYLQMNSLKPEDTAVYYCAKEVIRYSQYIFDYWGQGTQVTVSS	low polyreactivity
QVQLVESGGGLVQAGGSLRLSCAASGRIIKVYAMAWYRQAPGKDRELVAAISSRGGSTYYADSVKGRFTISRDNAKNTVYLQMNSVKPEDTAVYYCAALVTWLHPKGDYWGQGTQVTVSS	low polyreactivity
QVQLLESVGGLVQAGGSLRLSCAASGRTFSRYAMGSYRQAPGKERELVATISSSGGTTYYADSVKGRFTISRDNAKNTVYLQMNSLKPEDTAVYYCNAESKKRTHASGYDYWGHGTQVTVSS	low polyreactivity
QVQLVESGGGLVQAGGSLLLSCAASGIIFGTNALGWYRQAPGKERELVAAITWSGGNTTYADSVKGRFTISRDNAKNTVYLQMNSLKPEDTAVYYCAADFTRAGDYDYWGQGTQVTVSS	low polyreactivity
QVQLVESGGGLVQAGGSLRLTCAASGFIFKFYAMGWSRQAPGKEREVVAAITSSGGSTYYADSVKGRFTISRDNAKNTVYLQMNSLKPEDTAVYYCAAQFPGVYYYIYDYWGQGTQVTVSS	high polyreactivity
QVQLVESGGGLVQAGGSLRLSCAASGSTFTAYGMGWYRQAPGKERELVAAITWRGGRTYYADSVKGRFTISRDNAKNTVYLQMNSLKPEDTAVYYCAKGAVWRYTTKYGYDYWGQGTQVTVSS	high polyreactivity
